Three molecules from patent publication US20090148436A1 (Pfizer, published 2009) can be followed below.

In test [1] the target is T1, mature human GDF8 (growth and differentiation factor-8, myostatin) (human, UniProt O14793 267-375).
T1 construct: Recombinant mature GDF8 dimer purified from CHO cell conditioned media; It was biotinylated (Sulfo-NHS-Biotin) in the direct ELISA, the BIAcore work and the ActRIIB plate assay, and unlabeled in the sandwich ELISAs; In the peptide array Cys was replaced by Ser; also called mature GDF-8; GDF-8 dimer
In words: soluble ActRIIB as competitor: inhibition of the binding of biotinylated GDF8 (20 ng/ml) to plate-coated ActRIIB-Fc; axis OD 450 nm.

Test [2] addresses T1, mature human GDF8 (growth and …). Description: inhibition of the binding of biotinylated GDF8 (20 ng/ml), preincubated with the titrated protein, to plate-coated ActRIIB-Fc; axis OD 450 nm.
The target is the same in test [3]. In words: BIAcore 2000, RK22 (lot PK1901, activity 82.54 %) over biotinylated GDF-8 on Sensor Chip SA; 42.4 RU (6.14.03), Langmuir model (global analysis), Rmax 39.4, Chi2 3.67. For orientation: SPR reads the build-up and loss of mass on a sensor chip optically.
Test [4] shares this target. Description: BIAcore 2000, RK22 (lot PK1901, activity 82.54 %) over biotinylated GDF-8 on Sensor Chip SA; 45 RU (4.30.03), Bivalent model (global analysis), ka1/kd1, Rmax 84.00, Chi2 1.29.
Test [5] shares this target. Description: ELISA: antibody titrated on biotinylated GDF8 held on a streptavidin plate (title SA/BIO GDF8 BINDING ELISA), OD 450 nm. A general note: ELISA stands for enzyme-linked immunosorbent assay.
Test [6] shares this target. In words: BIAcore 2000, RK22 (lot PK1901, activity 82.54 %) over biotinylated GDF-8 on Sensor Chip SA; 71 RU (2.6.03), Langmuir model (global analysis), Rmax 44.00, Chi2 7.47.
Test [7] shares this target. In words: BIAcore 2000, RK22 (lot PK1901, activity 82.54 %) over biotinylated GDF-8 on Sensor Chip SA; 42.4 RU (6.14.03), Bivalent model (global analysis), ka1/kd1, Rmax 49.2, Chi2 0.299.
Test [8] has the same target. In words: sandwich ELISA: RK22 coated, GDF-8 titrated, biotinylated RK35 as detector, in THST; the concentration is that of GDF-8.
The target is the same in test [9]. Description: BIAcore 2000, RK22 (lot PK1901, activity 82.54 %) over biotinylated GDF-8 on Sensor Chip SA; 45 RU (4.30.03), Langmuir model (global analysis), Rmax 84.00, Chi2 2.12.
Test [10] shares this target. Description: BIAcore 2000, RK22 (lot PK1901, activity 82.54 %) over biotinylated GDF-8 on Sensor Chip SA; 71 RU (2.6.03), Bivalent model (global analysis), ka1/kd1, Rmax 53.00, Chi2 0.84.
For test [11] the target is unchanged. Description: BIAcore 2000, RK22 over biotinylated GDF-8 on Sensor Chip SA; Bivalent model (global analysis), ka1/kd1, row Average of three independent experiments.
For the next test, the target named is T2, mature BMP11 (human, UniProt O95390 299-407).
T2 construct: mature; it is not certain that 'human' covers BMP11; It was biotinylated in the ELISA; also called biotinylated BMP11
Description: ELISA: antibody titrated on biotinylated BMP11 held on a streptavidin plate (title SA/BIO BMP11 ELISA), OD 450 nm.

For test [12], the target named is T1, mature human GDF8 (growth and …). Description: SPR (BIAcore 2000), biotinylated GDF-8 on streptavidin chip, antibody 2.3-300 nM in solution.
Test [13] shares this target. In words: BIAcore 2000, RK22 over biotinylated GDF-8 on Sensor Chip SA; Langmuir model (global analysis), row Average of three independent experiments.
For test [14] the target is unchanged. In words: cell-based or functional assay.

T2 sequence (O95390 299-407): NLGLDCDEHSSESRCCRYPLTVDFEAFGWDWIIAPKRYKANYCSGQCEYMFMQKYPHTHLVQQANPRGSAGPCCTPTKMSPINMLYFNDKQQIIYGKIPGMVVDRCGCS

B1: Recombinant ActRIIB-Fc chimera (R&D Systems, Cat. No. 339-RB/CF) (Fc fusion)
chain: SGRGEAETRECIYYNANWELERTNQSGLERCEGEQDKRLHCYASWRNSSGTIELVKKGCWLDDFNCYDRQECVATEENPQVYFCCCEGNFCNERFTHLPEAGGPEVTYEPPPTAPT
notes: Bought construct; also called ActRIIB fusion protein; ActIIRB; Fc part of the bought chimera not given
B1: the “IC50 (read off the curve)” value in test [1] is roughly 0.3 nM.

B2: MYO-029 human IgG1 anti-GDF-8 antibody (antibody, V domains shown)
VH: QVQLVQSGAEVKKPGASVKVSCKASGYTFTSYYMHWVRQAPGQGLEWMGIINPSGGSTSYAQKFQGRVTMTRDTSTSTVYMELSSLRSEDTAVYYCARDENWGFDPWGQGTLVTVSS
VL: SYELTQPPSVSVSPGQTATITCSGHALGDKFVSWYQQGSGQSPVLVIYDDTQRPSGIPGRFSGSNSGNTATLTISGTQAMDEADYFCQAWDSSFVFGGGTKVTVL
As for B2, the “IC50 (read off the curve)” value in test [2] is roughly 0.3 nM.

B3: RK22 murine monoclonal anti-GDF8 antibody (antibody, V domains shown)
VH: QVQLQQSGAELARPGASVKLSCKASGYTFTSYWMQWVKQRPGQGLEWIGAIYPGDGDTRYTQKFKGKATLTADKSSSTAYMQLSSLASEDSAVYYCARMGGYDRYYFDYWGQGTTLTVSS
VL: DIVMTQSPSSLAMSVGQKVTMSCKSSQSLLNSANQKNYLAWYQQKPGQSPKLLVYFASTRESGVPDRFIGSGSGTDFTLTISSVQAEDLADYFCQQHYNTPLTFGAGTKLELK
notes: Mouse monoclonal from a hybridoma (GDF8 knockout mice); It was biotinylated when used as the ELISA detector; also called RK22 antibody; biotinylated RK22
Regarding B3, the Ka in test [3] is 3.24e+08 M⁻¹; in test [4], 3.67e+07 M⁻¹; in test [6], 2.58e+08 M⁻¹; in test [7], 1.09e+08 M⁻¹; in [9] it was 7.28e+07 M⁻¹; in test [10] it was 1.07e+08 M⁻¹. The Ka was determined as 8.44e+07 M⁻¹ in [11] and 2.18e+08 M⁻¹ in test [13]. Moreover, the Kd was 3.09 nM in test [3]; 27.3 nM in [4]; 3.88 nM in test [6]; 9.14 nM in test [7]; 13.7 nM in test [9]; 9.33 nM in [10]. The Kd in [11] stood at 15.2 nM; in test [12], 7 nM; in [13] it was 6.89 nM. In addition, the koff – broadly, the first-order rate constant of dissociation – in test [3] turned out to be 0.000482 s⁻¹; in test [4], 0.00063 s⁻¹; in test [6], 0.000572 s⁻¹; in [7], 0.000714 s⁻¹; in [9] it was 0.000633 s⁻¹; in test [10] it was 0.00078 s⁻¹. The results for the dissociation rate constant (koff) in [11] and in test [13] were 0.000708 s⁻¹ and 0.000562 s⁻¹, respectively. The kon (in general, a measure of how fast the partners come together) amounted to 156000 M⁻¹ s⁻¹ in test [3]; 23100 M⁻¹ s⁻¹ in test [4]; 147000 M⁻¹ s⁻¹ in [6]; 78100 M⁻¹ s⁻¹ in [7]; 46100 M⁻¹ s⁻¹ in test [9]; 83600 M⁻¹ s⁻¹ in [10]. The kon in test [11] came to 61600 M⁻¹ s⁻¹; in test [13] it was 116000 M⁻¹ s⁻¹. Also, the results for the concentration for a half-maximal effect (EC50) (in test [5]; in the test with mature BMP11) were 0.193 µg/mL and 61.2 µg/mL, respectively. In addition, the EC50 (read off the curve) (in general, the concentration that produces a half-maximal response) in [8] was roughly 0.0003 µg/mL. For the same molecule, the “IC50, pGL3(CAGA)12 luciferase reporter in A204 cells treated with 10 ng/ml GDF8” value in [14] stood at 0.4 nM.
